Experiments:
[1] = tested on: mouse, rat, monkey, and human EphA4; assay: Reactivity ELISA with mouse, rat, monkey, and human EphA4; format: binding; settings: 0.00128-20 μg/mL
Method: Mouse, rat, monkey, and human EphA4 extracellular region-Fc-His proteins were prepared according to the following steps. First, according to the method described in Example 1, a monkey EphA4 extracellular region-Fc-His protein expression vector was constructed. The amino acid sequence of monkey EphA4 used in the vector construction is shown in SEQ ID NO: 44, and its extracellular region is shown in SEQ ID NO: 45. Next, HEK293EBNA cells (Life Technologies) were inoculated to a 10-cm dish (Falcon) and cultured at 37° C. for 1 day. The HEK293EBNA cells were transfected with the monkey EphA4 extracellular region-Fc-His protein expression vector or the mouse EphA4, rat EphA4, or human EphA4 extracellular region-Fc-His protein expression vector described in Example 1 using TransIT-LT1 (TAKARA). After incubation (5% CO2, 37° C.) for 4 days, the culture supernatant was recovered and centrifuged at 1500 rpm at room temperature for 5 minutes. […]
Antibody A was evaluated for its binding activity against various Eph receptors according to the following steps.
Each well of a 96-well plate (Nunc) was coated with a donkey anti-mouse IgG antibody (Jackson ImmunoResearch Laboratories). […] The absorbance at 450 nm was read using a microplate reader (PerkinElmer).

[2] = biological target: T1, mouse EphA4 (binding to mouse Ephrin A1) (Mus musculus, UniProt Q03137); assay: Mouse EphA4-mouse ligand binding inhibition ELISA (Ephrin A1-Fc); settings: mouse EphA4-mouse ligand binding inhibition
T1 construct: made in house; host or cells: HEK293EBNA cells
T1 sequence (Q03137 with tags, fused parts or gaps): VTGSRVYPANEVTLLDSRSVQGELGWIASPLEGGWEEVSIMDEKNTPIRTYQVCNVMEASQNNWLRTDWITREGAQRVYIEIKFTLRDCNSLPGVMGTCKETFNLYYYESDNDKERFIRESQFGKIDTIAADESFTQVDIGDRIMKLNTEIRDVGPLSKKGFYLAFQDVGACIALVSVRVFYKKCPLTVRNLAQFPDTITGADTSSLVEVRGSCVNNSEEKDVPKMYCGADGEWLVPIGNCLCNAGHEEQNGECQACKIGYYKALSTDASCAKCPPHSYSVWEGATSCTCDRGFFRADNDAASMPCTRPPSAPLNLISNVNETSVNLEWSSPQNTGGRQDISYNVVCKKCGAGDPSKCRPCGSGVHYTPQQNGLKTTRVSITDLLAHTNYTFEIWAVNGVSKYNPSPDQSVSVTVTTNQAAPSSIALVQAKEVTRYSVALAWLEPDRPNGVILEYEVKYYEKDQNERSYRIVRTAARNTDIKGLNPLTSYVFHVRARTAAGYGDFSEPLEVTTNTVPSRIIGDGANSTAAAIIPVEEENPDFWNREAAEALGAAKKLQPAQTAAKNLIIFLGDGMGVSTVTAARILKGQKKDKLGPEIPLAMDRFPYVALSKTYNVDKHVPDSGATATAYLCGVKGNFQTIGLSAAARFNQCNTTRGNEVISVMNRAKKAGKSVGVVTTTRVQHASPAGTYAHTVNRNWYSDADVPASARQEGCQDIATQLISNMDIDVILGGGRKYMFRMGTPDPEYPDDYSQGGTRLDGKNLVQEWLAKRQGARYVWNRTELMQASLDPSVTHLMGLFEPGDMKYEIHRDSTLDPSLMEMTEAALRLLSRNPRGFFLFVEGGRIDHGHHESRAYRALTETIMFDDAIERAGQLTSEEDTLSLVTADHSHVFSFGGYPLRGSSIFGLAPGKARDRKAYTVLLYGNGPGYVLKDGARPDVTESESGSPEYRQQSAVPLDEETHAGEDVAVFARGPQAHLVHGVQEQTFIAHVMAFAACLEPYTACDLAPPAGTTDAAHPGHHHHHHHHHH
Method: Antibody A obtained in Example 1 was evaluated for its inhibitory activity against the binding between mouse EphA4 and its mouse ligand according to the following steps. Each well of a 96-well plate (Nunc) was coated with an anti-alkaline phosphatase antibody (Thermo Fisher Scientific). After incubation overnight at 4° C., each well was blocked with 1% BlockAce (DS Pharma Biomedical) at room temperature for 1 hour. After washing with 0.05% Tween 20/PBS (Thermo Fisher Scientific) three times, the mouse EphA4 extracellular region-SEAP-His protein obtained by the method of Example 1 was added (final concentration: 10 nM) to each well and incubated at room temperature for 1 hour. After washing three times, ligands and serially diluted antibody A (0, 0.001, 0.003, 0.01, 0.03, 0.1, 0.3, 1,3, 10, 30, 100, 300, and 1000 nM) or a known EphA4 inhibitor KYL peptide (KYLPYWPVLSSL, 0, 0.003, 0.01, 0.03, 0.1, 0.3, 1, 3, 10, 30, and 100 μM, its synthesis was outsourced to Hokkaido System Science) or compound 1 (0, 0.03, 0.1, 0.3, 1,3, 10, 30, 100, 300, and 1000 μM, Formula 1, Matrix Scientific) were added to each well. The ligands used were mouse Ephrin A1-Fc chimera (R&D Systems, final concentration: 20 nM) and mouse Ephrin B2-Fc chimera (R&D Systems, final concentration: 0.6 nM). […] The absorbance at 450 nm was read using a microplate reader (Molecular Devices).

B1: antibody A: mouse anti-EphA4 monoclonal antibody, IgG1/κ; heavy chain variable region SEQ ID NO: 11, light chain variable region SEQ ID NO: 13 (antibody, listed as Mus musculus, V domains shown)
VH: QIQLVQSGPELKKPGETVKISCKASGYTFTDYSMHWVKQAPGKGLKWMGWINTETGEPTYADDFKGRFAFSLETSASTAYLQINNLKNEDTATYFCARIPLYYYGSRYWYFDVWGAGTTVTVSS
VL: DIQMTQSPASLSVSVGETVTITCRASENIYRNLAWYQQKQGKSPQLLVYAATNLADGVPSRFSGSGSGTQYSLKINSLQSEDFGSYYCQHFWGTPWTFGGGTKLEIK
reaction activity against mouse, rat, monkey, and human EphA4 (in words) [1]: equivalent reaction activity against all of mouse, rat, monkey, and human EphA4
activity relative to KYL peptide (times stronger) [2]: ≥ 1,000 times

Reference: patent US10428140B2, “Anti-EphA4 antibody” (EISAI R&D MANAGEMENT CO., LTD., priority 2015, dated 2019)
